B1: 125 amino acid C-terminal fragment of CAPON: Gal4 activation domain fusion of the last 125 amino acids of CAPON (protein)
chain: SGALPVLCESTTPKPEDLHSPLLGAGLADFAHPVGSPLGRRDCLVKLECFRFLPAEDNQPMAQGEPLLGGLELIKFRESGIASEYESNTDESEERDSWSQEELPRLLNVLQRQELGDSLDDEIAV
B2: GST-CAPON: GST fusion protein consisting of CAPON amino acids 379-503 (C-terminal 125 amino acids) (protein)
chain: B1 chain

What was measured:
nNOS [1] = assay: Yeast two-hybrid interaction with nNOS (2-377); format: cell-based, rat
Source text: (§1) FIGS. 1A-1C. Cloning of the CAPON cDNA and distribution of CAPON mRNA. […] Yeast were transformed with the indicated Gal4 activation domain (AD) and Gal4 DNA-binding domain (BD) plasmids and grown on plates […] histidine. A typical filter lift is shown in which b-galactosidase activity was detected by the appearance of a blue precipitate. pAD-CAPON1, comprising the last 125 amino acids of CAPON, activates lacZ transcription in the presence of pBD-nNOS (2-377) but not with plasmids the first three PDZ domains of PSD95 (amino acids 20-364) or the second PDZ domain of PSD93 (amino acids 116-421).
We conducted a yeast two-hybrid screen employing the first 377 amino acids of nNOS, a region which includes the PDZ domain that comprises the first 100 amino acids of nNOS. […]
Two-hybrid screens and the construction of the parent vectors pPC86, containing the GAL4-activation domain, and pPC97, containing the GAL4-DNA binding domain, have been described (Jaffrey and Snyder, 1996). Plasmid pBD-NOS(2-377) was prepared by the insertion of an nNOS PCR product corresponding to amino acids 2-377 of rat nNOS into the Sal I and Bgl II sites of pPC97, resulting in an open reading frame encoding a GAL4 BD-NOS fusion protein (Jaffrey and Snyder, 1996). […]

PSD95 = assay: Yeast two-hybrid interaction with PSD95 PDZ domains (amino acids 20-364); format: cell-based
Source text: as §1
(§2) We conducted a yeast two-hybrid screen employing the first 377 amino acids of nNOS, a region which includes the PDZ domain that comprises the first 100 amino acids of nNOS. […] The CAPON two-hybrid clones share a common carboxyl terminus and are predicted to translate into 125 and 327 amino acid peptides followed by a stop codon. […] Moreover, nNOS fails to interact with another control protein, c-fos. To obtain a full-length CAPON cDNA, we screened a rat brain cDNA library with the larger two-hybrid clone and isolated a 2100 bp cDNA which overlapped with the two-hybrid clone and was used to assemble a final 2820 bp cDNA (see Methods). The conceptual translation of this cDNA produces a 503 amino acid protein (FIG. 1B SEQ ID NO:4). […]

PSD93 = assay: Yeast two-hybrid interaction with PSD93 second PDZ domain (amino acids 116-421); format: cell-based
Source text: as §1, §2

eNOS = assay: GST-fusion protein binding assay with lysates of transfected HEK293 cells, eNOS; settings: Western blot
Experimental: (§3) (FIG. 2A) CAPON binds to nNOS, but not eNOS or iNOS. Bacterially expressed GST, GST-PIN, and GST-CAPON were bound to glutathione agarose and then incubated with lysates of HEK293 cells transfected with expression plasmids for the indicated isoforms of NOS. After extensive washing of the resins, bound NOS was detected with isoform specific antibodies. […] Input=10% of starting material applied to each resin.
(§4) To assess the specificity of interactions between CAPON and nNOS, we evaluated the binding of a GST-CAPON fusion protein, consisting of C-terminal 125 amino acids of CAPON, with nNOS, eNOS and inducible NOS (iNOS) (FIG. 2A). Lysates of HEK-293 cells transfected with expression plasmids for each of the three forms of NOS were incubated with GST-CAPON. […] No interactions are evident with the GST control. […]
(§5) The material remaining on the resin was eluted with SDS-PAGE sample buffer and nNOS was detected by immunoblot using antibodies specific to each NOS isoform (Transduction Labs). […]

iNOS = assay: GST-fusion protein binding assay with lysates of transfected HEK293 cells, iNOS; settings: Western blot
Experimental: as §3, §4, §5

nNOS [2] = molecular target: nNOS (Rattus norvegicus, UniProt P29476); assay: GST-fusion protein binding assay with lysates of transfected HEK293 cells, nNOS; design: expressed in transfected cells; host or cells: HEK293; settings: Western blot
nNOS (Rattus norvegicus, UniProt P29476), sequence (P29476 whole entry, the tested form may be a part): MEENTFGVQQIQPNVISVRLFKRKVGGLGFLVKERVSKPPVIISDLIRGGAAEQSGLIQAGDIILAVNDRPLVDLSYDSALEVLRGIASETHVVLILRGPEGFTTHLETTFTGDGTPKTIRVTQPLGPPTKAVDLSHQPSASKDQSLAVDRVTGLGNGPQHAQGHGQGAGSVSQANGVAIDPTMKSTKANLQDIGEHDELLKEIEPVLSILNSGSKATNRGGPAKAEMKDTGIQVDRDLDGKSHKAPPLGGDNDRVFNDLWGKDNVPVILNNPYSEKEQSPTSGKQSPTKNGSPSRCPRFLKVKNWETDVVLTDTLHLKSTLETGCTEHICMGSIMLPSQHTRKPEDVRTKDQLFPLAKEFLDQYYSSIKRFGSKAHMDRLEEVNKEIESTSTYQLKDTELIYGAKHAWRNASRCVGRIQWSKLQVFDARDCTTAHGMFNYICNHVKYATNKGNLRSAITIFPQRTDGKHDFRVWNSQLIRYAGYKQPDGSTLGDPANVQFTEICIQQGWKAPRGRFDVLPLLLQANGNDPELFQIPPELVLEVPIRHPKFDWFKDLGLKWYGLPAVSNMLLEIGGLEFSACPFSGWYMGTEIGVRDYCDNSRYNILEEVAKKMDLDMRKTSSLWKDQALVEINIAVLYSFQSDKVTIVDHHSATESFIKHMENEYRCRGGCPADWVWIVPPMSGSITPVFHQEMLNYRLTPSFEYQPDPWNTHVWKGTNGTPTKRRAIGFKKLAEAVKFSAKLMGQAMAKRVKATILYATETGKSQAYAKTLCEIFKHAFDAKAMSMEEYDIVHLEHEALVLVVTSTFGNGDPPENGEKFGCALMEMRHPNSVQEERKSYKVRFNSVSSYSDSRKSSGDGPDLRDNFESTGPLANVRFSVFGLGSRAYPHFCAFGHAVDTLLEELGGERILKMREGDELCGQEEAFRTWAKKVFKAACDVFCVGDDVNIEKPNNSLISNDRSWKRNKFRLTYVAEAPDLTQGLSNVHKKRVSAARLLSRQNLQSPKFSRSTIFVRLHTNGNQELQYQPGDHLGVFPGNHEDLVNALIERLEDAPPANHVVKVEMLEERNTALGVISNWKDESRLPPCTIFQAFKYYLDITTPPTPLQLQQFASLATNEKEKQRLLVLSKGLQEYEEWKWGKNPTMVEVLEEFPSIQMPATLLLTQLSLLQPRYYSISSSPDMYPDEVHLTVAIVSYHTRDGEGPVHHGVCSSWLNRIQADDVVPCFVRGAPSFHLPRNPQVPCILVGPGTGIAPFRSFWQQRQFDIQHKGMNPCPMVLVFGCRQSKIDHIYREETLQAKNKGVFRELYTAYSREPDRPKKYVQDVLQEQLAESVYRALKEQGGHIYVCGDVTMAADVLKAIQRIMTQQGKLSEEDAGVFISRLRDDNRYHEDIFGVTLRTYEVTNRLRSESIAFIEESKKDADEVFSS
Experimental: as §3
(FIG. 4B) The C-terminal 13 amino acids of CAPON are sufficient for binding to nNOS. Various GST-CAPON fusion proteins were incubated with HEK293 lysates containing nNOS. A CAPON fusion protein comprising the last 100 amino acids binds nNOS, as do fusion proteins comprising the last 13 or 20 amino acids of CAPON.
as §4, §5

binding of nNOS to immobilized GST-fusion protein (nNOS [2])	Molecule	interaction with nNOS in the two-hybrid system (nNOS [1])	interaction with PSD95 fragment in the two-hybrid system (PSD95)	interaction with PSD93 fragment in the two-hybrid system (PSD93)	binding of eNOS to immobilized GST-fusion protein (eNOS)	binding of iNOS to immobilized GST-fusion protein (iNOS)
–	B1	specifically interacts	failure of CAPON to interact	failure of CAPON to interact	–	–
interacts strongly	B2	–	–	–	do not interact	do not interact

From patent publication US6103872A, “CAPON: a protein associated with neuronal nitric oxide synthase” (The Johns Hopkins University, priority 1998, dated 2000)
